Key:
37622A1 NSCLC xenografts = assay: 37622A1 NSCLC patient-derived xenografts with anti-Notch ADCs; type: in vivo, nude (Nu/Nu) female mice; conditions: 5 mg/kg Q4dx4
Procedure: (§1) Humanized anti-Notch antibodies, hu28 and hu75, and rat-human chimeric anti-Notch antibodies, ch28 and ch75, were conjugated to various linker-payload combinations and tested in 37622A1 non-small cell lung cancer (NSCLC), HCC2429 lung cancer, MDA-MB-468 breast cancer and N87 gastric cancer xenograft models. For each model described below the first dose was given on Day 0. The tumors were measured at least once a week and their volume was calculated with the formula: tumor volume (mm^3)=0.5×(tumor width^2)(tumor length). The mean tumor volumes (±S.E.M.) for each treatment group were calculated having a maximum of 10 animals and a minimum of 6 animals to be included.
The effects of anti-Notch ADCs were examined in immunodeficient mice on the in vivo growth of human tumor xenografts that were established from fragments of freshly resected 37622A1 NSCLC tumors obtained in accordance with appropriate consent procedures (Asterand). The 37622A1 NSCLC patient-derived xenografts were subcutaneously passaged in vivo as fragments from animal to animal in nude (Nu/Nu) female mice. When the tumors reached a volume of 150 to 300 mm^3, they were staged to ensure uniformity of the tumor size among various treatment groups. The 37622A1 NSCLC model was dosed intraveneously four times every four days (Q4dx4) with PBS vehicle, humanized anti-Notch ADCs, control huNeg-8.8 ADCs and cisplatin at the doses provided in Table 11.

N87 gastric xenografts = N87 gastric xenografts with anti-Notch ADCs; type: in vivo, nude (Nu/Nu) female mice; conditions: Dose 5 mg/kg Q4dx4 iv
Procedure: as §1
Similar in vivo experiments were performed with the N87 gastric cancer cell line as described above. […] When the tumors reached a volume of 250 to 450 mm^3, the tumors were staged to ensure uniformity of the tumor mass among various treatment groups. The N87 gastric model was dosed intraveneously Q4dx4 with PBS vehicle, humanized anti-Notch ADCs, control huNeg-8.8 ADCs and cisplatin at the doses provided in Tables 16 and 17.

HCC2429 (lung cancer) = assay: In vitro cytotoxicity assay with anti-Notch ADCs (MTS); type: cell-based; conditions: average of 2-4 repeats where ± S.E.M. is given
Procedure: (§2) The effects of anti-Notch ADCs were assessed on 1) cell lines endogenously expressing Notch protein: HCC2429 (lung cancer), OVCAR3 (ovarian cancer) and MDA-MB-468 (breast cancer), 2) cell lines engineered to over-express Notch protein: MDA-MB-468/hNotch and U2OS/hNotch, and 3) a negative control cell line (SW900) using an MTS cellular viability indicator (Promega, Madison, Wis.). These cell lines were cultured with increasing concentrations of anti-Notch ADCs comprising humanized anti-Notch antibodies, hu28 and hu75, and rat-human chimeric anti-Notch antibodies, ch28 and ch75, conjugated to various linker-payload combinations of the present invention. As a specificity control for the anti-Notch-ADCs, non-targeted control-ADCs (huNeg8.8-ADCs or ch2H6-ADCs) were also tested on the same cell lines. After four days, viability of each culture was assessed. IC50 values were calculated by logistic non-linear regression and presented as ng Ab/mL. The drug antibody ratio (DAR) is also provided.

[1] = system: MDA-MB-468 (breast cancer); assay: as above; type: cell-based; conditions: average of 2-4 repeats where ± S.E.M. is given
Procedure: as §2

OVCAR3 (ovarian cancer) = assay: as above; type: cell-based; conditions: average of 2-4 repeats where ± S.E.M. is given
Procedure: as §2

U2OS/hNotch = assay: as above; type: cell-based; conditions: average of 2-4 repeats where ± S.E.M. is given
Procedure: as §2

MDA-MB-468/hNotch = assay: as above; type: cell-based; conditions: average of 2-4 repeats where ± S.E.M. is given
Procedure: as §2

## N.N.[Cl][Pt][Cl] [Cisplatin, reference compound]
37622A1 NSCLC xenografts; DAY 4
  tumor volume (mm^3 ± SEM): 226 ± 15 mm^3
37622A1 NSCLC xenografts; DAY 7
  tumor volume (mm^3 ± SEM): 280 ± 29 mm^3
37622A1 NSCLC xenografts; DAY 11
  tumor volume (mm^3 ± SEM): 301 ± 34 mm^3
37622A1 NSCLC xenografts; DAY 14
  tumor volume (mm^3 ± SEM): 345 ± 47 mm^3
37622A1 NSCLC xenografts; DAY 18
  tumor volume (mm^3 ± SEM): 309 ± 37 mm^3
37622A1 NSCLC xenografts; DAY 21
  tumor volume (mm^3 ± SEM): 373 ± 50 mm^3
37622A1 NSCLC xenografts; DAY 25
  tumor volume (mm^3 ± SEM): 401 ± 58 mm^3
37622A1 NSCLC xenografts; DAY 28
  tumor volume (mm^3 ± SEM): 446 ± 64 mm^3
37622A1 NSCLC xenografts; DAY 32
  tumor volume (mm^3 ± SEM): 482 ± 62 mm^3
37622A1 NSCLC xenografts; DAY 35
  tumor volume (mm^3 ± SEM): 587 ± 80 mm^3
37622A1 NSCLC xenografts; DAY 39
  tumor volume (mm^3 ± SEM): 591 ± 83 mm^3
37622A1 NSCLC xenografts; DAY 42
  tumor volume (mm^3 ± SEM): 612 ± 92 mm^3
37622A1 NSCLC xenografts; DAY 46
  tumor volume (mm^3 ± SEM): 723 ± 119 mm^3
37622A1 NSCLC xenografts; DAY 49
  tumor volume (mm^3 ± SEM): 853 ± 139 mm^3
37622A1 NSCLC xenografts; DAY 53
  tumor volume (mm^3 ± SEM): 970 ± 193 mm^3
37622A1 NSCLC xenografts; DAY 56
  tumor volume (mm^3 ± SEM): 1215 ± 231 mm^3
37622A1 NSCLC xenografts; DAY 60
  tumor volume (mm^3 ± SEM): 1428 ± 273 mm^3
37622A1 NSCLC xenografts; DAY −1
  tumor volume (mm^3 ± SEM): 185 ± 11 mm^3
N87 gastric xenografts; DAY 0
  tumor volume (mm^3 ± SEM): 328 ± 20 mm^3
N87 gastric xenografts; DAY 4
  tumor volume (mm^3 ± SEM): 414 ± 27 mm^3
N87 gastric xenografts; DAY 7
  tumor volume (mm^3 ± SEM): 520 ± 26 mm^3
N87 gastric xenografts; DAY 11
  tumor volume (mm^3 ± SEM): 501 ± 29 mm^3
N87 gastric xenografts; DAY 14
  tumor volume (mm^3 ± SEM): 637 ± 31 mm^3

B1: ch75-mc0131 (conjugate)
VH: QVKLLQSGAALVKPGASVKMSCKASGYAFTDYWVTWVKQSHGKSLEWIGEISPNSGGTNFNEKFKGKATLTVDKSTSTAYMELSRLTSEDSAIYYCTRGEIRYNWFAYWGQGTLVTVSS
VL: DIQMTQSPSSLSASVGDRVTITCKASQNVGNNIAWYQQKPGKAPKLLIYYASNRYTGVPSRFSGSGYGTDFTLTISSLQPEDFATYYCQRLYNSPFTFGGGTKVEIK
HCC2429 (lung cancer)
  IC50 (ng Ab/mL) ± S.E.M.: 671 ± 406.5 ng Ab/mL
[1]
  IC50 (ng Ab/mL) ± S.E.M.: 8202 ± 2773.0 ng Ab/mL
OVCAR3 (ovarian cancer)
  IC50 (ng Ab/mL) ± S.E.M.: 289 ng Ab/mL
U2OS/hNotch
  IC50 (ng Ab/mL) ± S.E.M.: 19 ng Ab/mL

B2: ch75-vc6780 (conjugate)
VH: B1 VH
VL: B1 VL
HCC2429 (lung cancer)
  IC50 (ng Ab/mL) ± S.E.M.: 1004 ± 177.0 ng Ab/mL
[1]
  IC50 (ng Ab/mL) ± S.E.M.: 6873 ± 4230.0 ng Ab/mL
MDA-MB-468/hNotch
  IC50 (ng Ab/mL) ± S.E.M.: 21 ± 3.5 ng Ab/mL
OVCAR3 (ovarian cancer)
  IC50 (ng Ab/mL) ± S.E.M.: 922 ng Ab/mL

B3: ch75-vc0101: rat-human chimeric anti-Notch antibody ch75 conjugated to mcValCitPABC-#54 (conjugate)
VH: B1 VH
VL: B1 VL
HCC2429 (lung cancer)
  IC50 (ng Ab/mL) ± S.E.M.: 2112 ± 826.0 ng Ab/mL
[1]
  IC50 (ng Ab/mL) ± S.E.M.: 4064 ± 1793.9 ng Ab/mL
MDA-MB-468/hNotch
  IC50 (ng Ab/mL) ± S.E.M.: 24 ± 4.0 ng Ab/mL

B4: ch28-mc0131 (conjugate)
VH: EVQLVESGGGLVQPGRSLTLSCVASGFTFRDYGMTWIRQAPGKGLTWVAYISSGSNYIYYAEAVKGRFTISRDNAKNTLYLQMTSLRSEDTALYFCTRRGPFVLDAWGQGASVTVSS
VL: DIQMTQSPSFLSASVGDRVTINCKASQSINRYLHWFQQKLGEAPKLLIYNANGLQTGIPSRFSGSGSGTDFTLTISSLQSEDVATYFCLQHNTWPDTFGAGTKLELK
HCC2429 (lung cancer)
  IC50 (ng Ab/mL) ± S.E.M.: 251 ± 77.5 ng Ab/mL
[1]
  IC50 (ng Ab/mL) ± S.E.M.: 35 ± 18.5 ng Ab/mL
OVCAR3 (ovarian cancer)
  IC50 (ng Ab/mL) ± S.E.M.: 6 ± 1.0 ng Ab/mL
U2OS/hNotch
  IC50 (ng Ab/mL) ± S.E.M.: 3 ± 0.5 ng Ab/mL

B5: ch28-vc0101: rat-human chimeric anti-Notch antibody ch28 conjugated to mcValCitPABC-#54 (conjugate)
VH: B4 VH
VL: B4 VL
HCC2429 (lung cancer)
  IC50 (ng Ab/mL) ± S.E.M.: 3230 ± 1116.5 ng Ab/mL
[1]
  IC50 (ng Ab/mL) ± S.E.M.: 5443 ± 2630.9 ng Ab/mL
MDA-MB-468/hNotch
  IC50 (ng Ab/mL) ± S.E.M.: 4 ± 0.5 ng Ab/mL
OVCAR3 (ovarian cancer)
  IC50 (ng Ab/mL) ± S.E.M.: 635 ng Ab/mL
U2OS/hNotch
  IC50 (ng Ab/mL) ± S.E.M.: 95 ± 18.2 ng Ab/mL

B6: ch28-vc6780 (conjugate)
VH: B4 VH
VL: B4 VL
HCC2429 (lung cancer)
  IC50 (ng Ab/mL) ± S.E.M.: 324 ± 78.9 ng Ab/mL
[1]
  IC50 (ng Ab/mL) ± S.E.M.: 4407 ± 2128.2 ng Ab/mL
MDA-MB-468/hNotch
  IC50 (ng Ab/mL) ± S.E.M.: 3 ± 0.5 ng Ab/mL
OVCAR3 (ovarian cancer)
  IC50 (ng Ab/mL) ± S.E.M.: 90 ± 48.5 ng Ab/mL

B7: ch28-MalPeg6C2-8261 (conjugate)
VH: B4 VH
VL: B4 VL
[1]
  IC50 (ng Ab/mL) ± S.E.M.: 83 ± 35.5 ng Ab/mL

B8: ch28-me0131 (conjugate)
VH: B4 VH
VL: B4 VL
HCC2429 (lung cancer)
  IC50 (ng Ab/mL) ± S.E.M.: 30 ng Ab/mL
[1]
  IC50 (ng Ab/mL) ± S.E.M.: 24 ± 14.0 ng Ab/mL
OVCAR3 (ovarian cancer)
  IC50 (ng Ab/mL) ± S.E.M.: 8 ± 2.0 ng Ab/mL
U2OS/hNotch
  IC50 (ng Ab/mL) ± S.E.M.: 3 ± 1.15 ng Ab/mL

B9: ch28-mc3377 (conjugate)
VH: B4 VH
VL: B4 VL
[1]
  IC50 (ng Ab/mL) ± S.E.M.: 27 ± 11.3 ng Ab/mL
OVCAR3 (ovarian cancer)
  IC50 (ng Ab/mL) ± S.E.M.: 14 ± 5.5 ng Ab/mL
U2OS/hNotch
  IC50 (ng Ab/mL) ± S.E.M.: 3 ± 0.5 ng Ab/mL

B10: ch28-MalPeg6C2-0131 (conjugate)
VH: B4 VH
VL: B4 VL
[1]
  IC50 (ng Ab/mL) ± S.E.M.: 10 ± 1.0 ng Ab/mL
OVCAR3 (ovarian cancer)
  IC50 (ng Ab/mL) ± S.E.M.: 10 ± 2.0 ng Ab/mL
U2OS/hNotch
  IC50 (ng Ab/mL) ± S.E.M.: 3 ± 0.85 ng Ab/mL

B11: ch28-mc8261 (conjugate)
VH: B4 VH
VL: B4 VL
[1]
  IC50 (ng Ab/mL) ± S.E.M.: 12147 ± 4806.4 ng Ab/mL

— patent US8828401B2, “Cytotoxic peptides and antibody drug conjugates thereof” (Pfizer Inc., priority 2011, dated 2014)
